From patent US11787850B2, “Peptidic TGF-beta antagonists” (priority 2015, dated 2023)

Assay: Size-exclusion chromatography on Superdex Peptide 10/300GL column
Assay type: physicochemical
Settings: for formation of aggregates by size-exclusion chromatography: peptide in PBS, Superdex Peptide 10/300GL, 0.6 ml/min; for Aggregation?: size-exclusion chromatography, peptide dissolved in PBS
Description: Approximately 200 μg of each peptide X (40 amino acids), X-1 (28 amino acids), peptide A (161 amino acids), P11 (11 amino acids), P16 (16 amino acids), P21 (21 amino acids, P16-2 (16 amino acids, scrambled sequence control), X-3 (16 amino acids) and X-4 (11 amino acids) were dissolved in phosphate-buffered saline (PBS) and loaded onto a Superdex Peptide 10/300GL column. The column was eluted with PBS at a flow rate of 0.6 mL/min and eluents were analyzed for peptide content by measuring relative absorbance at a wavelength of 215 nm. (FIGS. 3A and 3B) The data is plotted with relative absorbance (Y-axis) against elution volume (X-axis). Peptides 1-9 are color coded (A—peptides (1) to (5); B (peptides (6) to (9)). As shown on panel A, peptide X (peptide 1, black line) elution profile indicated two major peaks at approximately 8 mL and 11 mL which correspond to molecular weights greater than 12.4 kDa. The theoretical molecular weight of peptide X is 4.7 kDa which is expected to elute from the column at approximately 15 mL. Under the conditions tested, peptide X existed as high molecular weight aggregates with minimal soluble (monomeric) form. On the other hand, P16 (peptide 5, green line) elution profile indicated a broad peak between 14-22 mL which is expected to contain peptides of between 0.1 and 6 kDa and is consistent with its theoretical molecular weight of 2.01 kDa.
FIG. 4 illustrates the standard curve used for size-exclusion chromatography of standard peptides using the Superdex Peptide 10/300 GL column (results provided in FIG. 3). A pool of standard peptides of various molecular weights (1. cytochrome c (Mr 12.384 kDa) 1 mg/mL; 2. aprotinin (Mr 6.512 kDa) 2 mg/mL; 3. vitamin B12 (Mr 1.355 kDa) 0.1 mg/mL; 4. (Gly)3 (Mr 0.189 kDa) 0.1 mg/mL; 5. Gly (Mr 0.075 kDa) 7.8 mg/mL) were subjected to size-exclusion chromatography using the Superdex Peptide 10/300 GL column (flow rate 0.5 ml/min at room temperature, sample volume of 50 μL, eluent 0.05M phosphate, 0.15 M NaCl, ph 7.0). The resulting chromatogram (absorbance at 215 nm (in mAU, left Y axis) and conductivity (in mS/cm, right Y axis, in function of volume of elution (in mL)) indicates the elution profiles of the above peptides with high MW peptides eluting in earlier fractions and lower MW peptides eluting in later fractions as expected. The molecular weights of peptides were plotted against elution volume generating a standard curve (not shown).
More specifically, approximately […] of each peptide X (40 amino acids), X-1 (28 amino acids), peptide A (161 amino acids), P11 (11 amino acids), P16 (16 amino acids), P21 (21 amino acids, P16-2 (16 amino acids, scrambled sequence control), X-3 (16 amino acids) and X-4 (11 amino acids) were dissolved in phosphate-buffered saline (PBS) and loaded onto a Superdex Peptide 10/300GL column. The column was eluted with PBS at a flow rate of 0.6 ml/min and eluants were analyzed for peptide content by measuring relative absorbance at a wavelength of 215 nm. The data were plotted with relative absorbance (Y-axis) against elution volume (X-axis). […] The theoretical molecular weight of peptide X is 4.7 kDa which is expected to elute from the column at approximately 15 mL. […] P16 (peptide 5) elution profile indicated a peak between 14-22 mL which was expected to contain peptides of between 0.1 and 6 kDa and is consistent with its theoretical molecular weight of 2.01 kDa.
More specifically, a pool of standard proteins of various molecular weights were subjected to size-exclusion chromatography using the Superdex Peptide 10/300 GL column. The resulting chromatogram indicated the elution profiles of the peptides with high molecular weight peptides eluting in earlier fractions and lower molecular weight peptides eluting in later fractions as expected. The molecular weights of peptides were plotted against elution volume generating a standard curve (not shown) and was used to calculate molecular weights of the CD109-based peptides. […]

ETWIWLDTNMGSRIYQ [Peptide P16]
formation of aggregates by size-exclusion chromatography: did not | Aggregation?: Not aggregated

LGSSPHVRKHFPETWIWLDTNMGSRIYQEFEVTVPDSITS (Peptide X)
molecular weights corresponding to the elution peaks (PBS, theoretical MW peptide X 4.7 kDa, P16 2.01 kDa): greater than 12.4 kDa | formation of aggregates by size-exclusion chromatography: formed aggregates | Aggregation?: Aggregated
